This assay concerns the target interleukin-6 receptor (IL-6R) (human) (UniProt P08887). In words: cell-based or functional assay.

interleukin-6 receptor (IL-6R) (human), sequence (P08887 20-468 limits assumed): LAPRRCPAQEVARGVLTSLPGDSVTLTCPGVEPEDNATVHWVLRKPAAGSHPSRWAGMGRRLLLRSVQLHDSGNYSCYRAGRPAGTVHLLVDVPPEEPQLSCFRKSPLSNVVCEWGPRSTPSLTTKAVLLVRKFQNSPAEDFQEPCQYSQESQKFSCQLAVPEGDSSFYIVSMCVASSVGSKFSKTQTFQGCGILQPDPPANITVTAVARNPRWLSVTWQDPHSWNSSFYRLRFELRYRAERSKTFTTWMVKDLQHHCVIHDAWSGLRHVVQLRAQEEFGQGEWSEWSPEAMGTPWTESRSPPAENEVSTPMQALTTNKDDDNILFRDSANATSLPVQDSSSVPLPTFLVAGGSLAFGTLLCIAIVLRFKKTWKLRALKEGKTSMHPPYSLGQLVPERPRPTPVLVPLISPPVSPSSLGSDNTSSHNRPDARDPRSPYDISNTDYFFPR

Take tocilizumab (antibody): the median peak levels of serum IL-6 (day 3-5) is 10 fold.

The values above are taken from patent US20220016165A1.
